Source: PMC5730846

Experiments:
[1] = target: recombinant Hsp90α (human) (UniProt P07900)
[2] = target: Tsc1-D-His6 labeled with Texas Red maleimide (UniProt Q92574); assay: fluorescence polarisation; fluorescence anisotropy; 1 μM Texas Red-labeled Tsc1-D, Hsp90α at the indicated concentrations; 50 mM Tris pH 7.2, 150 mM NaCl, 1 mM TCEP, 4 mM MgCl2; no nucleotide or drug; single-site fit
[3] = target: Tsc1-D-His6 labeled with Texas Red maleimide (UniProt Q92574); assay: fluorescence polarisation; as a5, Hsp90α pre-incubated with 1 μM GB (ganetespib)

Tsc1-D-His6 labeled with Texas Red maleimide, sequence (Q92574 998-1164): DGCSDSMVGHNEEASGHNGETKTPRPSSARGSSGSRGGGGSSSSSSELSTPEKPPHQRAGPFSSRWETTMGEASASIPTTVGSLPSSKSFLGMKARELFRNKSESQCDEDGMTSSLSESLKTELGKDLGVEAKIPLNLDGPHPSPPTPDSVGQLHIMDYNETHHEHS
recombinant Aha1-FLAG, sequence (O95433 whole entry): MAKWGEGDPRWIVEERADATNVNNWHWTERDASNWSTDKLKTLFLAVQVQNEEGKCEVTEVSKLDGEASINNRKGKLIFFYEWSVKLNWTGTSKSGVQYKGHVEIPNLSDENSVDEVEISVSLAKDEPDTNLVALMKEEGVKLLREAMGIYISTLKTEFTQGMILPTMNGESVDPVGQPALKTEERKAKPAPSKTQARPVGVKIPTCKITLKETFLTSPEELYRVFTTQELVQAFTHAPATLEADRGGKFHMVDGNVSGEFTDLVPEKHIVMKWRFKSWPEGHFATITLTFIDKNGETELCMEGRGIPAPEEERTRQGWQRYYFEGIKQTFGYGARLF

Substance | Hsp90α ATPase activity in vitro after incubation with 1 μM Tsc1-D-His6 and addition of 1.3 μM Aha1-FLAG (percent of Hsp90α alone) [1] [%] | Kd [2] [nM] | Kd [3] [µM]
recombinant Aha1-FLAG (from UniProt O95433 1-338) (natural protein) | 100 | – | –
recombinant Hsp90α (from UniProt P07900 1-732) (natural protein) | – | 480 | > 5
